{"source": "patent US20030045681A1", "about": "(published 2003)", "molecules": {"B1": {"name": "scFv(L19) (scFv)", "scFv": "EVQLLESGGGLVQPGGSLRLSCAASGFTFSSFSMSWVRQAPGKGLEWVSSISGSSGTTYYADSVKGRFTISRDNSKNTLYLQMNSLRAEDTAVYYCAKPFPYFDYWGQGTLVTVSSGDGSSGGSGGASTGEIVLTQSPGTLSLSPGERATLSCRASQSVSSSYLAWYQQKPGQAPRLLIYYASSRATGIPDRFSGSGSGTDFTLTISRLEPEDFAVYYCQQTGRIPPTFGQGTKVEIKDDDSDDDYKDDDDKHHHHHH", "notes": "also called antibody L19; anti-ED-B L19"}}, "key": {"hen egg lysozyme (hen)": {"target": "hen egg lysozyme (hen) (UniProt P00698)", "sequence (P00698 19-147)": "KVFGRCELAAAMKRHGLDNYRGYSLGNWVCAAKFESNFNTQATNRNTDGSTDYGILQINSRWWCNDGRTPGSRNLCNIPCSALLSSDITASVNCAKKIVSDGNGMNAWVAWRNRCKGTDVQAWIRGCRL", "assay": "radiolabeled scFv loaded onto an antigen column, flow-through and eluate counted"}, "[1]": {"target": "an irrelevant antigen (antigen of HyHEL-10, not given)", "assay": "affinity chromatography of the conjugate on an antigen column"}, "[2]": {"target": "T1, recombinant ED-B domain of fibronectin (UniProt P02751 1266-1356, biotinylated (biotin disulfide N-hydroxysuccinimide ester) in ELISA and the ECL competition; Cy5 at the N-terminal extremity in the band-shift assay)", "T1 construct": "domain: ED-B; also called biotinylated ED-B; ED-B-biotin", "T1 sequence (P02751 1266-1356 limits assumed)": "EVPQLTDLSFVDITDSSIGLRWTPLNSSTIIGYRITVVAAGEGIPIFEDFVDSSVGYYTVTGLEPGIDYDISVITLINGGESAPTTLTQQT", "assay": "competition of the scFv-(biotinylated ED-B) complex with excess unbiotinylated ED-B, electrochemiluminescent detection (Origen)", "procedure": "(§1) Int. J. Cancer, 68, 397-405). After loading, the column was washed with 50 ml of equilibration buffer (PBS, 1 mM EDTA, 0.5 M NaCl). Antibody fragments were then eluted with triethylamine 100 mM, immediately neutralised with 1M Hepes, pH 7, and dialysed against PBS. Affinity measurements by BIAcore were performed with purified antibodies as described (Neri et al. (1997). Nature Biotechnol., 15 1271-1275) [FIG. 4]. Band-shift analysis was performed as described (Neri et al. (1996). Nature Biotechnology, 14, 385-390), using recombinant ED-B fluorescently labeled at the N-terminal extremity (Carnemolla et al. (1996). Int. J. Cancer, 68, 397-405, Neri et al. (1997). Nature Biotechnol., 15 1271-1275) with the infrared fluorophore Cy5 (Amersham) [FIG. 4]. […] We therefore performed measurements of the kinetic dissociation constant koff by competition experiments (Neri et al. (1996), Trends in Biotechnol., 14, 465-470) [FIG. 4]. […] Streptavidin-coated dynabeads, diluted in Origen Assay Buffer (Deaver, D. R. (1995). Nature, 377, 758-760) were then added (20 μl, 1 mg/ml), and the resulting mixtures analysed with a ORIGEN Analyzer (IGEN Inc. Gaithersburg, Md. USA). […]"}, "[3]": {"target": "T1, recombinant ED-B domain of fibronectin", "assay": "SPR (BIAcore); the footnote calls this value not sufficiently reliable", "procedure": "(§2) Meth., 206, 171-182) and affinity purified onto a CNBr-activated sepharose column (Pharmacia, Uppsala, Sweden), which had been coupled with 10 mg of ED-B containing 7B89 recombinant protein (Carnemolla et al. (1996). Int. J. Cancer, 68, 397-405). After loading, the column was washed with 50 ml of equilibration buffer (PBS, 1 mM EDTA, 0.5 M NaCl). Antibody fragments were then eluted with triethylamine 100 mM, immediately neutralised with 1M Hepes, pH 7, and dialysed against PBS. Affinity measurements by BIAcore were performed with purified antibodies as described (Neri et al. (1997). Nature Biotechnol., 15 1271-1275) [FIG. 4]. Band-shift analysis was performed as described (Neri et al. (1996). Nature Biotechnology, 14, 385-390), using recombinant ED-B fluorescently labeled at the N-terminal extremity (Carnemolla et al. (1996). Int. J. Cancer, 68, 397-405, Neri et al. (1997). Nature Biotechnol., 15 1271-1275) with the infrared fluorophore Cy5 (Amersham) [FIG. 4]. […] We therefore performed measurements of the kinetic dissociation constant koff by competition experiments (Neri et al. (1996), Trends in Biotechnol., 14, 465-470) [FIG. 4]. […] Streptavidin-coated dynabeads, diluted in Origen Assay Buffer (Deaver, D. R. (1995). Nature, 377, 758-760) were then added (20 μl, 1 mg/ml), and the resulting mixtures analysed with a ORIGEN Analyzer (IGEN Inc. Gaithersburg, Md. USA). […]"}, "[4]": {"target": "T1, recombinant ED-B domain of fibronectin", "assay": "Kd = koff/kon, koff from ECL competition, kon from BIAcore", "procedure": "as §1"}, "[5]": {"target": "T1, recombinant ED-B domain of fibronectin", "assay": "SPR (BIAcore), purified scFv on ED-B", "procedure": "as §2"}}}
{"molecule": "radioiodinated scFv(D1.3)", "values": [{"measurement": "immunoreactivity", "setting": "hen egg lysozyme (hen)", "value": "> 80", "unit": "%"}]}
{"molecule": "scFv(HyHEL-10)-Cy5", "values": [{"measurement": "immunoreactivity", "setting": "[1]", "value": "> 78", "unit": "%"}]}
{"molecule": "B1", "values": [{"measurement": "koff", "setting": "[2]", "value": "6e-06", "unit": "s⁻¹"}, {"measurement": "koff", "setting": "[3]", "value": "9.6e-05", "unit": "s⁻¹"}, {"measurement": "Kd", "setting": "[4]", "value": 0.054, "unit": "nM"}, {"measurement": "kon", "setting": "[5]", "value": 110000, "unit": "M⁻¹ s⁻¹"}]}
